Experimental data taken from patent publication US20140162952A1 (ONCOTHERAPY SCIENCE, published 2014).
Read-outs that look alike come from different tables or passages of the source.

Key:
[1] = target: T1, HA-PHB2 (HA-tagged PHB2 construct) (human, UniProt Q99623 1-299, limits assumed); experiment: co-IP from COS-7 cells co-transfected with a Flag-ERAP1 construct and HA-PHB2; IP anti-Flag, IB anti-HA
T1 construct: Expressed by transfection in COS-7 or HEK293T cells; also called PHB2/REA construct; HA-tagged PHB2/REA (WT); not shown: HA tag

[2] = target: T1, HA-PHB2 (HA-tagged PHB2 construct); experiment: as above; remark: listed apart in the source
[3] = target: T1, HA-PHB2 (HA-tagged PHB2 construct); experiment: co-immunoprecipitation from COS-7 cells, IP anti-FLAG, blot anti-HA (second experiment)
[4] = target: T1, HA-PHB2 (HA-tagged PHB2 construct); experiment: COS-7 co-transfection with the PHB2/REA construct, IP with anti-HA antibody, immunoblot
[5] = target: T1, HA-PHB2 (HA-tagged PHB2 construct); experiment: COS-7 co-transfection with the PHB2/REA construct, IP with anti-FLAG antibody, immunoblot

T1 sequence (Q99623 whole entry): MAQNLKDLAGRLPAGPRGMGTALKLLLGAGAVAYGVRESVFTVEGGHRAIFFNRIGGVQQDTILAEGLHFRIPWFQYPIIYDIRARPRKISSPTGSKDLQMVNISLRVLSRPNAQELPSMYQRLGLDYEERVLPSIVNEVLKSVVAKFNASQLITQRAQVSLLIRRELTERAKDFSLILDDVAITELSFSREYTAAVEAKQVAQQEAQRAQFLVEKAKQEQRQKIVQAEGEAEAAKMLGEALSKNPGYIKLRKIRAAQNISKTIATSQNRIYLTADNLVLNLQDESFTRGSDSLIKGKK

Row | binding result [1] | binding result [2] | ratio of the coprecipitated band (ERAP1 1-434 = 100) [3] | coprecipitation band, ratio when that with ERAP1 (1-434 aa) is designated as 100 [4] [%] | coprecipitation band, ratio when that with ERAP1 (1-434 aa) is designated as 100 [5] [%] | Binder
1 | no binding | – | – | – | – | ERAP1 435-2177 (Flag-ERAP1) (other, not shown: small tags and cut ends) GALDELSQGKGLSEGQVQLLLLRLEELKDGAEWSRDSMEINEADFRWQRRVLSSEHTPWESGNERSLDISISVTTDTGQTTLEGELGQTTPEDHSGNHKNSLKSPAIPEGKETLSKVLETEAVDQPDVVQRSHTVPYPDITNFLSVDCRTRSYGSRYSESNFSVDDQDLSRTEFDSCDQYSMAAEKDSGRSDVSDIGSDNCSLADEEQTPRDCLGHRSLRTAALSLKLLKNQEADQHSARLFIQSLEGLLPRLLSLSNVEEVDTALQNFASTFCSGMMHSPGFDGNSSLSFQMLMNADSLYTAAHCALLLNLKLSHGDYYRKRPTLAPGVMKDFMKQVQTSGVLMVFSQAWIEELYHQVLDRNMLGEAGYWGSPEDNSLPLITMLTDIDGLESSAIGGQLMASAATESPFAQSRRIDDSTVAGVAFARYILVGCWKNLIDTLSTPLTGRMAGSSKGLAFILGAEGIKEQNQKERDAICMSLDGLRKAARLSCALGVAANCASALAQMAAASCVQEEKEEREAQEPSDAITQVKLKVEQKLEQIGKVQGVWLHTAHVLCMEAILSVGLEMGSHNPDCWPHVFRVCEYVGTLEHNHFSDGASQPPLTISQPQKATGSAGLLGDPECEGSPPEHSPEQGRSLSTAPVVQPLSIQDLVREGSRGRASDFRGGSLMSGSSAAKVVLTLSTQADRLFEDATDKLNLMALGGFLYQLKKASQSQLFHSVTDTVDYSLAMPGEVKSTQDRKSALHLFRLGNAMLRIVRSKARPLLHVMRCWSLVAPHLVEAACHKERHVSQKAVSFIHDILTEVLTDWNEPPHFHFNEALFRPFERIMQLELCDEDVQDQVVTSIGELVEVCSTQIQSGWRPLFSALETVHGGNKSEMKEYLVGDYSMGKGQAPVFDVFEAFLNTDNIQVFANAATSYIMCLMKFVKGLGEVDCKEIGDCAPAPGAPSTDLCLPALDYLRRCSQLLAKIYKMPLKPIFLSGRLAGLPRRLQEQSASSEDGIESVLSDFDDDTGLIEVWIILLEQLTAAVSNCPRQHQPPTLDLLFELLRDVTKTPGPGFGIYAVVHLLLPVMSVWLRRSHKDHSYWDMASANFKHAIGLSCELVVEHIQSFLHSDIRYESMINTMLKDLFELLVACVAKPTETISRVGCSCIRYVLVTAGPVFTEEMWRLACCALQDAFSATLKPVKDLLGCFHSGTESFSGEGCQVRVAAPSSSPSAEAEYWRIRAMAQQVFMLDTQCSPKTPNNFDHAQSCQLIIELPPDEKPNGHTKKSVSFREIVVSLLSHQVLLQNLYDILLEEFVKGPSPGEEKTIQVPEAKLAGFLRYISMQNLAVIFDLLLDSYRTAREFDTSPGLKCLLKKVSGIGGAANLYRQSAMSFNIYFHALVCAVLTNQETITAEQVKKVLFEDDERSTDSSQQCSSEDEDIFEETAQVSPPRGKEKRQWRARMPLLSVQPVSNADWVWLVKRLHKLCMELCNNYIQMHLDLENCMEEPPIFKGDPFFILPSFQSESSTPSTGGFSGKETPSEDDRSQSREHMGESLSLKAGGGDLLLPPSPKVEKKDPSRKKEWWENAGNKIYTMAADKTISKLMTEYKKRKQQHNLSAFPKEVKVEKKGEPLGPRGQDSPLLQRPQHLMDQGQMRHSFSAGPELLRQDKRPRSGSTGSSLSVSVRDAEAQIQAWTNMVLTVLNQIQILPDQTFTALQPAVFPCISQLTCHVTDIRVRQAVREWLGRVGRVYDIIV
2 | no binding | – | – | – | – | ERAP1 1468-2177 (Flag-ERAP1) (other, not shown: small tags and cut ends, deletion construct) CPRQHQPPTLDLLFELLRDVTKTPGPGFGIYAVVHLLLPVMSVWLRRSHKDHSYWDMASANFKHAIGLSCELVVEHIQSFLHSDIRYESMINTMLKDLFELLVACVAKPTETISRVGCSCIRYVLVTAGPVFTEEMWRLACCALQDAFSATLKPVKDLLGCFHSGTESFSGEGCQVRVAAPSSSPSAEAEYWRIRAMAQQVFMLDTQCSPKTPNNFDHAQSCQLIIELPPDEKPNGHTKKSVSFREIVVSLLSHQVLLQNLYDILLEEFVKGPSPGEEKTIQVPEAKLAGFLRYISMQNLAVIFDLLLDSYRTAREFDTSPGLKCLLKKVSGIGGAANLYRQSAMSFNIYFHALVCAVLTNQETITAEQVKKVLFEDDERSTDSSQQCSSEDEDIFEETAQVSPPRGKEKRQWRARMPLLSVQPVSNADWVWLVKRLHKLCMELCNNYIQMHLDLENCMEEPPIFKGDPFFILPSFQSESSTPSTGGFSGKETPSEDDRSQSREHMGESLSLKAGGGDLLLPPSPKVEKKDPSRKKEWWENAGNKIYTMAADKTISKLMTEYKKRKQQHNLSAFPKEVKVEKKGEPLGPRGQDSPLLQRPQHLMDQGQMRHSFSAGPELLRQDKRPRSGSTGSSLSVSVRDAEAQIQAWTNMVLTVLNQIQILPDQTFTALQPAVFPCISQLTCHVTDIRVRQAVREWLGRVGRVYDIIV
3 | – | no binding | – | – | – | Flag-ERAP1 1-100 (other, not shown: small tags and cut ends, deletion construct) MEEILRKLQKEASGSKYKAIKESCTWALETLGGLDTIVKIPPHVLREKCLLPLQLALESKNVKLAQHALAGMQKLLSEERFVSMETDSDEKQLLNQILNA
4 | – | binds | – | – | – | Flag-ERAP1 1-250 (other, not shown: small tags and cut ends, deletion construct) MEEILRKLQKEASGSKYKAIKESCTWALETLGGLDTIVKIPPHVLREKCLLPLQLALESKNVKLAQHALAGMQKLLSEERFVSMETDSDEKQLLNQILNAVKVTPSLNEDLQVEVMKVLLCITYTPTFDLNGSAVLKIAEVCIETYISSCHQRSINTAVRATLSQMLSDLTLQLRQRQENTIIENPDVPQDFGNQGSTVESLCDDVVSVLTVLCEKLQAAINDSQQLQLLYLECILSVLSSSSSSMHLHR
5 | – | – | 33 | 0 | 22 | ERAP1 alanine mutant of D169 (D169A) (other, also called D169 mutant construct; not shown: Flag tag) MEEILRKLQKEASGSKYKAIKESCTWALETLGGLDTIVKIPPHVLREKCLLPLQLALESKNVKLAQHALAGMQKLLSEERFVSMETDSDEKQLLNQILNAVKVTPSLNEDLQVEVMKVLLCITYTPTFDLNGSAVLKIAEVCIETYISSCHQRSINTAVRATLSQMLSALTLQLRQRQENTIIENPDVPQDFGNQGSTVESLCDDVVSVLTVLCEKLQAAINDSQQLQLLYLECILSVLSSSSSSMHLHRRFTDLIWKNLCPALIVILGNPIHDKTITSAHTSSTSTSLESDSASPGVSDHGRGSGCSCTAPALSGPVARTIYYIAAELVRLVGSVDSMKPVLQSLYHRVLLYPPPQHRVEAIKIMKEILGSPQRLCDLAGPSSTESESRKRSISKRKSHLDLLKLIMDGMTEACIKGGIEACYAAVSCVCTLL
6 | – | – | 63 | 24 | 60 | ERAP1 alanine mutant of Q165 (Q165A) (other, also called Q165 mutant construct; not shown: Flag tag) MEEILRKLQKEASGSKYKAIKESCTWALETLGGLDTIVKIPPHVLREKCLLPLQLALESKNVKLAQHALAGMQKLLSEERFVSMETDSDEKQLLNQILNAVKVTPSLNEDLQVEVMKVLLCITYTPTFDLNGSAVLKIAEVCIETYISSCHQRSINTAVRATLSAMLSDLTLQLRQRQENTIIENPDVPQDFGNQGSTVESLCDDVVSVLTVLCEKLQAAINDSQQLQLLYLECILSVLSSSSSSMHLHRRFTDLIWKNLCPALIVILGNPIHDKTITSAHTSSTSTSLESDSASPGVSDHGRGSGCSCTAPALSGPVARTIYYIAAELVRLVGSVDSMKPVLQSLYHRVLLYPPPQHRVEAIKIMKEILGSPQRLCDLAGPSSTESESRKRSISKRKSHLDLLKLIMDGMTEACIKGGIEACYAAVSCVCTLL
